1 molecule from patent US11938104B1, “Compositions and methods for prevention and treatment of coronavirus and related disorders” (Abrexa Pharmaceuticals, Inc., priority 2021, dated 2024) can be followed below.

In this test the test system is Male SD rats. Nature of the test: Thromboembolic MCAO, J147+tPA expanded study, 72 h (Example 4). It is filed as in vivo, rat. The method, then:
Objective: To determine whether J147 can prevent tPA-associated brain hemorrhage and extend the treatment time window of tPA in a clinically relevant thromboembolic stroke model in rats. • J147 compound: Stock solution: 60 mg/ml DMSO, in 60 ul/vial, stored at −20° C. • Working solution: 3 mg/ml in 5% DMSO, 70% PEG200 and 25% normal saline, prepared prior to injection. • One vial stock solution was warmed at 37° C. and mixed with 1140 ul sterilized solution (PEG200: saline, 2.8:1). • Recombinant human tPA (Alteplase, 2.2 mg/vial): Reconstituted with 1.1 ml water (2 mg/ml). 10 mg/kg, 10% bonus injection, 90% 30 min. via mini pump.
Methods: Male SD rats (280-300 g) were subjected to thromboembolic middle cerebral artery occlusion (MCAO) and treated with saline at 4 hours, tPA (tissue-type plasminogen activator; 10 mg/kg, IV) at 4 hours, and combined J147 (10 mg/kg, IV) plus tPA at 4 hours after onset of ischemia. Bederson score was examined prior to the sacrifice at 72 h after stroke. Infarct volumes, brain hemorrhage, and animal mortality were measured.
Conclusion: J147 plus tPA combination treatment attenuates tPA-associated hemorrhage and alleviates brain damage after eMCAO. Consequently, the use of J147 in combination with tPA may extend the length of the therapeutic window for administration of tPA following an ischemic event and thereby increase the number of stroke patients that could benefit from use of tPA. • J147 compound: Stock solution: 60 mg/ml DMSO, in 60 ul/vial, stored at −20° C. • Working solution: 3 mg/ml in 5% DMSO, 70% PEG200 and 25% normal saline, prepared prior to injection. One vial stock solution was warmed at 37° C. and mixed with 1140 ul sterilized solution (PEG200: saline, 2.8:1). • Recombinant human tPA (Alteplase, 2.2 mg/vial): Reconstituted with 1.1 ml water (2 mg/ml). 10 mg/kg, 10% bonus injection, 90% 30 min. via mini pump.

The mark [1] stands for this setting: tPA 10 mg/kg IV, J147 10 mg/kg IV, at 4 hours after onset of ischemia, 72 h after stroke.

B1: tPA: Recombinant human tPA (Alteplase); tissue plasminogen activator, thrombolytic approved by the FDA for the treatment of stroke (protein, UniProt P00750 36-562, looked up)
Tissue-type plasminogen …: SYQVICRDEKTQMIYQQHQSWLRPVLRSNRVEYCWCNSGRAQCHSVPVKSCSEPRCFNGGTCQQALYFSDFVCQCPEGFAGKCCEIDTRATCYEDQGISYRGTWSTAESGAECTNWNSSALAQKPYSGRRPDAIRLGLGNHNYCRNPDRDSKPWCYVFKAGKYSSEFCSTPACSEGNSDCYFGNGSAYRGTHSLTESGASCLPWNSMILIGKVYTAQNPSAQALGLGKHNYCRNPDGDAKPWCHVLKNRRLTWEYCDVPSCSTCGLRQYSQPQFRIKGGLFADIASHPWQAAIFAKHRRSPGERFLCGGILISSCWILSAAHCFQERFPPHHLTVILGRTYRVVPGEEEQKFEVEKYIVHKEFDDDTYDNDIALLQLKSDSSRCAQESSVVRTVCLPPADLQLPDWTECELSGYGKHEALSPFYSERLKEAHVRLYPSSRCTSQHLLNRTVTDNMLCAGDTRSGGPQANLHDACQGDSGGPLVCLNDGRMTLVGIISWGLGCGQKDVPGVYTKVTNYLDWIRDNMRP
For the molecule B1, under setting [1], the “brain hemorrhage / hemorrhagic transformation” value is reported as “worsened” and the “brain infarction / infarct volume” value was “did not decrease”. Further, the mortality rate (treatment at 4 h after onset of ischemia, log-rank test *p < 0.05 vs Saline or tPA alone group) was 32%. In addition, under “treatment at 4 h after onset of ischemia, tPA n = 22, J147 plus tPA n = 17”, the “Death (number of rats)” value was 7.
